The target of test [1] is Biotinylated green fluorescent protein (biotin-GFP). Briefly: native-PAGE, dissociation under excess biotin, 37 °C, 10 h.
Test [2] shares this target. The experiment in a line: native-PAGE, dissociation under excess biotin, 45 °C, 10 h.
Test [3] shares this target. Briefly: native-PAGE, dissociation under excess biotin, 23 °C, 10 h.

On to “Neutravidin (NA) (from UniProt P02701 25-152)”, for which the percent of biotin conjugate dissociated after 10 h in test [1] came to 16%; in test [2] it was 32%; in test [3], 6.8%.

For the origin of these results see patent publication US20170114104A1.
